Measured values taken from article PMC10138814, “Structural Insights into the Binding of Red Fluorescent Protein mCherry-Specific Nanobodies” (International Journal of Molecular Sciences, 2023).

B1: His-SUMO-LaM8 (VHH)
VHH: QVQLVESGGGLVQAGGSLRLSCAVSGRPFSEYNLGWFRQAPGKEREFVARIRSSGTTVYTDSVKGRFSASRDNAKNMGYLQLNSLEPEDTAVYYCAMSRVDTDSPAFYDYWGQGTQVTVST
notes: held in PDB 8IM0; Captured by its His tag on NTA biosensors in BLI; vector pET28a-SUMO; also called Sumo-His tagged LaM8; source: E. coli BL21(DE3), purified (Ni-NTA, eluted with imidazole); not shown: His, N-terminal, kept; SUMO, N-terminal, kept
B2: LaM8 (VHH)
VHH: QVQLVESGGGLVQAGGSLRLSCAVSGRPFSEYNLGWFRQAPGKEREFVARIRSSGTTVYTDSVKGRFSASRDNAKNMGYLQLNSLEPEDTAVYYCAMSRVDTDSPAFYDYWGQGTQVTVST
notes: Tag-removed form; also called llama nanobody against mCherry 8; source: E. coli BL21(DE3), purified (Ni-NTA, ULP1 cleavage on the column, ion exchange or size exclusion chromatography); not shown: His, N-terminal, cleaved; SUMO, N-terminal, cleaved
B3: His-SUMO-LaM3 (VHH)
VHH: QVQLVQSGGGLVQAGGSLRLSCAASGRTFSDIAVGWFRQTPGKEREFVAAISWSGLIINYGDSVEDRFTISRDNAKSAVYLQMNSLKPEDTAVYYCAARIGMNYYYAREIEYPYWGQGTQVTVSK
notes: held in PDB 8ILX; Captured by its His tag on NTA biosensors in BLI; vector pET28a-SUMO; also called Sumo-His tagged LaM3; source: E. coli BL21(DE3), purified (Ni-NTA, eluted with imidazole); not shown: His, N-terminal, kept; SUMO, N-terminal, kept
B4: LaM3 (VHH)
VHH: QVQLVQSGGGLVQAGGSLRLSCAASGRTFSDIAVGWFRQTPGKEREFVAAISWSGLIINYGDSVEDRFTISRDNAKSAVYLQMNSLKPEDTAVYYCAARIGMNYYYAREIEYPYWGQGTQVTVSK
notes: Tag-removed form; also called llama nanobody against mCherry 3; source: E. coli BL21(DE3), purified (Ni-NTA, ULP1 cleavage on the column, ion exchange or size exclusion chromatography); not shown: His, N-terminal, cleaved; SUMO, N-terminal, cleaved
B5: His-SUMO-LaM1 (VHH)
VHH: QVQLVESGGGLVQAGDSLRLSCAASGRTFENYAMGWFRQAPGKEREFVGAVSWGGGRTYYADNVKGRFTISRDNAKKNTVYLQMNSLKPEDTAVYYCAAKSVLTIATMRVPDEYNYWGQGTQVTVS
notes: held in PDB 8IM1; Captured by its His tag on NTA biosensors in BLI; vector pET28a-SUMO; also called Sumo-His tagged LaM1; source: E. coli BL21(DE3), purified (Ni-NTA, eluted with imidazole); not shown: His, N-terminal, kept; SUMO, N-terminal, kept
B6: LaM1 (VHH)
VHH: QVQLVESGGGLVQAGDSLRLSCAASGRTFENYAMGWFRQAPGKEREFVGAVSWGGGRTYYADNVKGRFTISRDNAKKNTVYLQMNSLKPEDTAVYYCAAKSVLTIATMRVPDEYNYWGQGTQVTVS
notes: Tag-removed form; also called llama nanobody against mCherry 1; source: E. coli BL21(DE3), purified (Ni-NTA, ULP1 cleavage on the column, ion exchange or size exclusion chromatography); not shown: His, N-terminal, cleaved; SUMO, N-terminal, cleaved

Key:
Conditions in all cases: both partners purified
[1] = molecular target: T1, mCherry (Discosoma sp. DsRed-derived, engineered …, chromophore (residues not given)); assay: BLI; His-SUMO-LaM nanobody (100 nM) loaded on Ni-NTA biosensors; mCherry or DsRed in solution; 20 mM HEPES pH 7.4, 150 mM NaCl, 0.005% Tween-20; association 600 s, dissociation 600 s; 1:1 global fit
T1 construct: Engineered monomeric derivative of DsRed; also called His10-TEV site-mCherry (before cleavage); H10T-mCherry; source: E. coli BL21(DE3), purified (Ni-NTA, TEV cleavage on the column); not shown: His10, N-terminal, cleaved

[2] = molecular target: T1, mCherry; assay: ITC; 100 uM nanobody in the syringe into 10 uM mCherry (or 8.9 uM mCherry-LaM1 or mCherry-LaM3 complex) in the cell; 25 °C; one set of sites
[3] = molecular target: T2, DsRed (Discosoma sp., UniProt Q9U6Y8); assay: BLI; His-SUMO-LaM nanobody (100 nM) loaded on Ni-NTA biosensors; mCherry or DsRed in solution; 20 mM HEPES pH 7.4, 150 mM NaCl, 0.005% Tween-20; association 600 s, dissociation 600 s; 1:1 global fit
T2 construct: DsRed red fluorescent protein; PDB 1ZGO was used for structural alignment; His6-SUMO-DsRed printed as 39.6 kD; also called tetrameric DsRed protein; His6-SUMO-DsRed (before cleavage); source: prokaryotic expression system, purified (tags removed by ULP1 on the column); not shown: His6, N-terminal, cleaved; SUMO, N-terminal, cleaved
T2 sequence (Q9U6Y8 whole entry): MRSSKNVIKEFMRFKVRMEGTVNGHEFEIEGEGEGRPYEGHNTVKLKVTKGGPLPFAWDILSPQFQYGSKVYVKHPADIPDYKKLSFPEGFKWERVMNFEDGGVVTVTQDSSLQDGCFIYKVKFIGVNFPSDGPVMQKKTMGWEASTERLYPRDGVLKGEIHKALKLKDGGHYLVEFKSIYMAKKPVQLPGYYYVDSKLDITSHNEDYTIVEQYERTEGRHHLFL

Binder | Kd [1] | koff [1] | kon [1] | Kd [2] | dH [2] | stoichiometry N [2] | Kd [3] | koff [3] | kon [3]
B1 | 36.8 nM | 0.00926 s⁻¹ | 252000 M⁻¹ s⁻¹ |  |  |  |  |  | 
B2 |  |  |  | 199 nM | -11.2 ± 1.51 kcal/mol | 0.842 sites |  |  | 
B3 | 30.6 nM | 0.00324 s⁻¹ | 106000 M⁻¹ s⁻¹ |  |  |  | 7130 nM | 0.000443 s⁻¹ | 62.2 ± 1.02 M⁻¹ s⁻¹
B4 |  |  |  | 13.7 nM | -13.7 ± 0.157 kcal/mol | 0.913 sites |  |  | 
B5 | 12.9 nM | 0.00117 s⁻¹ | 91300 M⁻¹ s⁻¹ |  |  |  |  |  | 
B6 |  |  |  | 289 nM | -28.7 ± 0.906 kcal/mol | 1 sites |  |  | 
